Source: patent US20030232051A1 (GOVERNMENT OF THE UNITED STATES OF AMERICA AS REPRESENTED …, published 2003)
One block for each binder: values may come before it.

Biological target: T1, KIR2DL4 receptor (on NK cells or on cells transfected with 2DL4) (human, UniProt Q99706 22-377)
T1 construct: whole, on cells; Endogenous on human NK cells and NK cell lines (NK3.3, NKL, NK92) or on transfected cells; also called CD158d
Assay: transfection experiments in Ba/F3 and 293T cells

T1 sequence (Q99706 22-377): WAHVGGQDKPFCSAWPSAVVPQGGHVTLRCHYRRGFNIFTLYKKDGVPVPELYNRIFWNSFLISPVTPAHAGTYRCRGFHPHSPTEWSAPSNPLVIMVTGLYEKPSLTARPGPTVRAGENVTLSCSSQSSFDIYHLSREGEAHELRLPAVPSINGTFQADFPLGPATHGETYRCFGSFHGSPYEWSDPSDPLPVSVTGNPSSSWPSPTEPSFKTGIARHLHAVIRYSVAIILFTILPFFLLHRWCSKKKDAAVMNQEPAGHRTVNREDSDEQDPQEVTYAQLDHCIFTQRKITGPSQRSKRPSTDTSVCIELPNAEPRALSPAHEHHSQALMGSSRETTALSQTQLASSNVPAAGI

- binding result: no binding
B1: DAP12 (other, UniProt O43914 22-113, looked up)
chain: LRPVQAQAQSDCSCSTVSPGVLAGIVMGDLVLTVLIALAVYFLGRLVPRGRGAAEAATRKQRITETESPYQELQGQRSDVYSDLNTQRPYYK
notes: whole, on cells; also called DAP12 adaptor protein

- binding result: no binding
B2: FcRγ chain (other, UniProt P30273 19-86, looked up)
chain: LGEPQLCYILDAILFLYGIVLTLLYCRLKIQVRKAAITSYEKSDGVYTGLSTRNQETYETLKHEKPPQ
notes: whole, on cells

- binding result: no binding
B3: DAP10 (other, UniProt Q9UBK5 19-93, looked up)
chain: QTTPGERSSLPAFYPGTSGSCSGCGSLSLPLLAGLVAADAVASLLIVGAVFLCARPRRSPAQEDGKVYINMPGRG
notes: whole, on cells
